# B1: HBeAg construct Cp(-10)149, C48A, C107A (natural protein)
# chain: SKLCLGWLWGMDIDPYKEFGATVELLSFLPSDFFPSVRDLLDTAAALYRDALESPEHASPHHTALRQAILCWGDLMTLATWVGTNLEDPASRDLVVSYVNTNVGLKFRQLLWFHISALTFGRETVLEYLVSFGVWIRTPPAYRPPNAPILSTLPETTVV
# Legend:
# [1] = biological target: HBeAg used for crystallization: Cp(-10)149, C48A, C107A, G123A (Hepatitis B virus) (UniProt P03147); assay: crystal structure
# [2] = biological target: the molecule itself; assay: AUC
Molecule,stoichiometry N [1],stoichiometry N [2]
"HBeAg used for crystallization: Cp(-10)149, C48A, C107A, G123A (from UniProt P03147 1-149) (natural protein)",2,–
B1,–,2
